A word on the Kd: it is the constant that tells how readily two partners part at equilibrium. High values mean a looser complex, low ones a tighter complex. The koff is the rate constant with which the complex falls apart. High values mean fast dissociation, low ones slow dissociation. As a reminder, the kon is a measure of how fast the partners come together. Read a high kon as fast association.

The chains are these.
B1: 20B9 (antibody, V domains shown)
VH: QVTLKESGPVLVKPTETLTLTCTVSGFSLSNARMGVSWIRQPPGKALEWLGHIFSTDEKSYSTSLRGRITISKDTSRGLVVLTLTNMDPVDTATYYCARDSSNYEGYFDFWGPGFLVTVSS
VL: EIVMTQSPATLSVSPGERATLSCRVSQSIGANLAWYQQKFGQAPRLLIYGASTRATGIPVRFSGGGSGTEFTLTISSLQSEDFAIYSCQQYIYWPFTFGPGTTVDIK
notes: Hybridoma supernatant (AlivaMab mouse); captured/detected via mouse Fc
B2: 12B2 (antibody, V domains shown)
VH: QVTLKESGPVLVKPTETLTLTCTVSGFSLSNPRMGVSWIRQPPGKALEWLGHIFSSDEKSYRLSLRSRLSISKDTSKSQVVLTMTNMDPVDTATYYCVRDSSNYGGYFDYWGQGTLVTVSS
VL: EVVMTQSPATLSVSPGERATLSCRASQSVINNLAWYQQKPGQAPRLLIYGTSTRATDIPARFSGSGSGTEFTLTISSLQSEDFAVYYCQDYNNWPFTFGPGTKVDIK
notes: as for B1
B3: 11F10 (antibody, V domains shown)
VH: B2 VH with T15I, S25C, S64F, V98A, N103D, G105E
VL: EIVMTQSPATLSVSPGERTTLSCRASQSVGSNLAWYQQKPGQAPRLLIYGASTRASGVPARFSGSGSGTEFTLTISSLQSEDFAVYSCQEYNNWPFTFGQGTKVEIK
notes: as for B1
B4: 29D5 (antibody, V domains shown)
VH: QVTLKESGPVLVKPTETLTLTCTVSGFSLSNPRMGVSWLRQPPGKALEWFAHIFSTDEKSYSPSLRGRLTVSKDTSKSQVVLTLTNMDPVDTATYYCARDSSNYEGYFDYWGQGTLVTVSS
VL: KIVMTQSPATLSVSPGERATLSCRANQIVSSNLAWYQQKPGQAPRLLVFGTSTRATGIPIRFSGSGSGTEFTLTVSSLQSEDFAVYVCQQYNDWPFTFGPGTKVDIK
notes: as for B1
B5: 42G9 (antibody, V domains shown)
VH: QVTLKESGPVLLKPTETLTLTCTVSGFSLSNPRMGVSWIRQPPGKALEWFAHIFSTDEKSLKLSLRSRLTLSKDTSKSQVVLTMTNMAPVDSATYYCARDSSNYEGYFDFWGQGTLVTVSS
VL: EVVLTQSPATLSVSPGERATLSCRASQSVRSNLAWYQQKSGQAPRLLIYGSTIRATGVPARFSGSGSGTEFTLTISSLQSEDFAVYYCQQYSDWPFTFGPGTKVDIK
notes: Hybridoma supernatant (AlivaMab mouse); captured/detected via mouse Fc; also called mAb 42G9
B6: 19A9 (antibody, V domains shown)
VH: B5 VH with K5E, L12V, P32A, L47P, K62R, A88D, S92T, F110Y
VL: EVVMTQSPATLSVSPGERATLSCRASQSVNRNLAWYQQKPGQAPRLLIFGTSTRATGIPARFSGSGSGTEFTLTIDSLQSEHSGLYYCQQYNDWPFTFGPGTKVDIK
notes: as for B1
B7: 14C11 (antibody, V domains shown)
VH: B5 VH with L12V, S30N, P32A, L61F, K62R, L63T, A88D, S92T, F110Y, T115I
VL: EIVMTQSPATLSVSPGERATLSCRASQSVSNNLAWYQQKPGQAPRLLIYGASTRATGVPARFSGSDSGTEFSLTISSLQSEDFAVYFCQQYKDWPFTFGPGTKVEIK
notes: as for B1
B8: 49B11 (antibody, V domains shown)
VH: B5 VH with L12V, P32V, T56S, L61I, K62R, L63R, A88D, S92T, F110Y
VL: EMEVTQSPATLSVSPGERATLSCRASQNIGSDLAWYQQQSGQAPRLLISGASTRATGVPTRFSGSGSGTDFTLTITSLQSEDFAVYYCQQYNDWPFTFGPGTKVDIK
notes: as for B1
B9: 21E11 (antibody, V domains shown)
VH: B5 VH with L12V, P32V, T56S, L61I, K62R, L63R, A88D, S92T
VL: B8 VL with E1D, E3V, N28S, I29V, Q39P, S40P, A43S, S49Y, T60A, Q79E
notes: as for B1
B10: 12H6 (antibody, V domains shown)
VH: B5 VH with L12V, P32A, F50L, L61I, K62R, L63R, A88D, S92T, F110Y
VL: EVVMTQSPATLSVSPGERATLSCRASQGVSSNFAWYQQRPGQSPRLLLYGASTRATGVPGRFSGSGSGTENILTISSLQSEDFAIYFCQQYKDWPFTFGPGSKVDIK
notes: as for B1
B11: 46E10 (antibody, V domains shown)
VH: B5 VH with L12V, P32A, F50L, L61I, K62R, L63R, T83I, A88D, S92T, F110Y
VL: B10 VL with A9P, T10N, G28S, S30T, I85V
notes: as for B1
B12: 32A10 (antibody, V domains shown)
VH: B5 VH with L12V, P32A, F50L, L61I, K62R, L63R, A88D, S92T, Y96F, F110Y
VL: B10 VL with A19V, G28S, S43A, S52T, V58L
notes: as for B1
B13: 11B11 (antibody, V domains shown)
VH: B2 VH with P32A, R33K, G51A, S56T, Y61I, L63R, S70T, I71M, G105E
VL: B10 VL with V3L, G28S, S31T, S43A, Y49F, V58I, D105E
notes: as for B1
B14: 21E7 (antibody, V domains shown)
VH: B5 VH with K5E, L12V, P32A, L47P, K62R, A88D, S92T, F110Y
VL: B6 VL with E1D, M4L, R31S, K39N, T51S, R61S, D76N, G84A, L85V
notes: as for B1

Positions count from the first letter of the chain named.

The target in one assay is T1, human EGFRvIII expressed on cells (human, UniProt P00533 298-1210).
T1 construct: the F98-npEGFRvIII line was obtained from ATCC and its construct is not described; also called F98-npEGFRvIII; F98-EGFRvIII
Kind of assay: flow cytometry, F98-npEGFRvIII cells. For orientation: Flow cytometry measures light scatter and fluorescence of single cells or particles in a stream.
With B1, the “% positive” value was determined as 98.3% and the MFI worked out at 3420.
For the molecule B2, the “% positive” value amounted to 97.9% and the MFI is 2750.
The corresponding values for B3 are 98% and 3280.
With B4, the “% positive” value worked out at 97.9% and the MFI was determined as 2830.
The corresponding values for B5 are 98.5% and 3250.
In the case of B6, the “% positive” value was 98.1% and the MFI amounted to 3100.
As for B7, the “% positive” value turned out to be 98.2% and the MFI was 3210.
As to B8, the “% positive” value stood at 98.5% and the MFI was determined as 2980.
On to B9, for which the “% positive” value amounted to 98.5% and the MFI was found to be 3100.
Consider B10, for which the “% positive” value came to 98.3% and the MFI amounted to 3440.
Regarding B11, the “% positive” value turned out to be 98.7% and the MFI is 2990.
The corresponding values for B12 are 98.3% and 3350.
As to B13, the “% positive” value is 98.2% and the MFI was 3390.
The corresponding values for B14 are 98.5% and 3100.

The next assay addresses T2, Monomeric 8-histidine tagged human EGFRvIII extracellular domain (human, UniProt P00533 298-645).
T2 construct: Analyte in all SPR assays; not shown: 8-histidine tag
The assay is described as follows: SPR, captured by anti-mouse Fc, 37 C. An excerpt:
To generate human antibodies against EGFRvIII, transgenic AlivaMab mice (Ablexis LLC, San Francisco, Calif.) were immunized with alternating schedule of paraformaldehyde-fixed rat glioblastoma cell line expressing EGFRvIII, F98-npEGFRvIII (American Type Culture Collection, Manassas, Va.) and peptides (SEQ ID NO: 227: […]) directed to the junction region in EGFRvIII. Hybridomas were generated using standard techniques. To determine the binding affinity and specificity of these hybridomas to EGFRvIII, antibodies in culture supernatants were captured by anti-mouse Fc using Biacore™ T200 biosensor equipped with anti-mouse Fc coupled CM4 sensor chips (Biacore™ AB, Uppsala, Sweden—now GE Healthcare). Monomeric 8-histidine tagged human EGFRvIII extracellular domain was then injected as the analyte at 10-fold dilution series starting with top concentration 1000 nM. Affinity of anti-EGFRvIII antibodies towards human EGFRvIII was measured at 37° C.
In general terms: In SPR one partner is held on a chip, and binding of the other changes the refractive index at the surface.
B1 came in with a Kd of 32.1 nM, a koff of 0.0015 s⁻¹ and a kon of 46700 M⁻¹ s⁻¹.
Molecule B2 yielded a Kd of 24.3 nM, a koff of 0.00179 s⁻¹ and a kon of 73800 M⁻¹ s⁻¹.
In the case of B3, the Kd turned out to be 42.4 nM, the koff is 0.00281 s⁻¹ and the kon came out at 66300 M⁻¹ s⁻¹.
B4 gave a Kd of 41.6 nM, a koff of 0.00424 s⁻¹ and an on-rate (kon) of 102000 M⁻¹ s⁻¹.
In turn, B5 registered a Kd of 8.2 nM, a koff of 0.000563 s⁻¹ and a kon of 68800 M⁻¹ s⁻¹.
Turning to B6, the Kd was determined as 18.6 nM, the koff was 0.00104 s⁻¹ and the kon came to 55800 M⁻¹ s⁻¹.
The molecule B7 had a Kd of 78.5 nM, a koff of 0.00593 s⁻¹ and an on-rate (kon) of 75500 M⁻¹ s⁻¹.
The corresponding values for B8 are 9.1 nM, 0.000695 s⁻¹ and 76400 M⁻¹ s⁻¹.
On to B9, for which binding was characterised by a dissociation constant (Kd) of 9.5 nM, the koff worked out at 0.000632 s⁻¹ and the kon worked out at 66600 M⁻¹ s⁻¹.
The corresponding values for B10 are 12.4 nM, 0.000733 s⁻¹ and 59300 M⁻¹ s⁻¹.
Turning to B11, the Kd is 12 nM, the koff came to 0.000716 s⁻¹ and the kon was 59700 M⁻¹ s⁻¹.
The corresponding values for B12 are 9.6 nM, 0.000626 s⁻¹ and 65400 M⁻¹ s⁻¹.
Consider B13, for which the Kd came to 21.7 nM, the koff worked out at 0.00113 s⁻¹ and the kon amounted to 52100 M⁻¹ s⁻¹.
The corresponding values for B14 are 19.9 nM, 0.0013 s⁻¹ and 65200 M⁻¹ s⁻¹.

In a further assay the target is T3, 8-histidine tagged recombinant wild-type protein EGFRwt (UniProt P00533 25-645, limits assumed).
T3 construct: not shown: 8-histidine tag
Kind of assay: SPR, captured by anti-mouse Fc.
Regarding B1, the binding result is given as “no binding (tested: 1000 nM)”.
With B2, the binding result is on record as “no binding (tested: 1000 nM)”.
Regarding B3, the binding result is reported as “no binding (tested: 1000 nM)”.
On the same count and under the same terms, with B4 the entry was “no binding (tested: 1000 nM)”.
As for B5, the binding result was “no binding (tested: 1000 nM)”.
For the molecule B6, the binding result is reported as “no binding (tested: 1000 nM)”.
The same measure, in the same setting: with B7 the entry was “no binding (tested: 1000 nM)”; with B8, “no binding (tested: 1000 nM)”.
Regarding B9, the binding result was “no binding (tested: 1000 nM)”.
Turning to B10, the binding result is given as “no binding (tested: 1000 nM)”.
For B11, the binding result is recorded as “no binding (tested: 1000 nM)”.
For B12, the binding result was “no binding (tested: 1000 nM)”.
Turning to B13, the binding result is “no binding (tested: 1000 nM)”.
Still for that read-out and setting: with B14 the entry was “no binding (tested: 1000 nM)”.

The target of the next assay is T1, human EGFRvIII expressed on cells. The assay is described as follows: flow cytometry, F98-npEGFRvIII against F98, F98-EGFRwt and A431 cells.
Consider B1, for which the “fold MFI on EGFRvIII expressing cell line over non-expressing cell lines” value (“fold MFI … over non-expressing cell lines” below) is at least 10 fold.
Turning to B2, the “fold MFI … over non-expressing cell lines” value is at least 10 fold.
Regarding B3, the “fold MFI … over non-expressing cell lines” value was at least 10 fold.
As to B4, the “fold MFI … over non-expressing cell lines” value was at least 10 fold.
As for B5, the “fold MFI … over non-expressing cell lines” value is at least 10 fold.
As to B6, the “fold MFI … over non-expressing cell lines” value was at least 10 fold.
As to B7, the “fold MFI … over non-expressing cell lines” value is at least 10 fold.
As to B8, the “fold MFI … over non-expressing cell lines” value was at least 10 fold.
For B9, the “fold MFI … over non-expressing cell lines” value was at least 10 fold.
B10: the “fold MFI … over non-expressing cell lines” value was at least 10 fold.
Regarding B11, the “fold MFI … over non-expressing cell lines” value was at least 10 fold.
On to B12, for which the “fold MFI … over non-expressing cell lines” value was at least 10 fold.
As for B13, the “fold MFI … over non-expressing cell lines” value is at least 10 fold.
Turning to B14, the “fold MFI … over non-expressing cell lines” value was at least 10 fold.

Source of the values: patent publication US20190144550A1 (Pfizer, published 2019).
